In paper PMC3169412, “Structure of 3-ketoacyl-(acyl-carrier-protein) reductase from Rickettsia prowazekii at 2.25 Å resolution” (Acta Crystallographica Section F: Structural Biology and …, 2011):

Biological target: the molecule itself
Experiment: crystal structure

B1: 3-ketoacyl-(acyl-carrier-protein) reductase (FabG) from Rickettsia prowazekii strain Madrid E (enzyme)
chain: MIDLTGKTSLITGASSGIGSAIARLLHKLGSKVIISGSNEEKLKSLGNALKDNYTIEVCNLANKEECSNLISKTSNLDILVCNAGITSDTLAIRMKDQDFDKVIDINLKANFILNREAIKKMIQKRYGRIINISSIVGIAGNPGQANYCASKAGLIGMTKSLSYEVATRGITVNAVAPGFIKSDMTDKLNEKQREAIVQKIPLGTYGIPEDVAYAVAFLASNNASYITGQTLHVNGGMLMV
notes: also called 3-ketoacyl-(ACP) reductase; 3-oxoacyl-(acyl-carrier-protein) reductase; not shown: His6, N-terminal, kept
- stoichiometry N: 4
